Measured values from the supplement of paper PMC9112550, “Optimization of the antimicrobial peptide Bac7 by deep mutational scanning” (BMC Biology, 2022).

System: Escherichia coli TOP10
Assay: shrunken log2 fold change of peptide-encoding DNA abundance (4.5 h post-induction vs induction); higher = less antimicrobial activity (less host growth inhibition)
Conditions: time post-induction: 4.5 h; library: site-saturation at positions 5, 18, 19, 20
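Also: peptides expressed intracellularly from a pBAD plasmid library in pooled LB shake-flask culture, induced with 0.3% L-arabinose, DNA abundance read by NGS, three biological replicates, DESeq2 with apeglm shrinkage.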

Q: With RRIRPRPPRLPRPRPRPKEGPRP as the sequence, how does the “shrunken log2 fold change” value read?
A: Its value is -0.00237.

Q: RRIRYRPPRLPRPRPRPTRAPRP was tested. Which “shrunken log2 fold change” value did it give?
A: The value was 0.144.

Q: How did the “shrunken log2 fold change” value turn out when RRIRYRPPRLPRPRPRPLCGPRP was run?
A: Its value is -0.557.

Q: How did the “shrunken log2 fold change” value turn out when RRIRIRPPRLPRPRPRPQGPPRP was run?
A: The value was -0.0152.

Q: How did the “shrunken log2 fold change” value turn out when RRIRKRPPRLPRPRPRPTLHPRP was run?
A: The value was 0.359.

Q: With RRIRERPPRLPRPRPRPWPYPRP as the sequence, how does the “shrunken log2 fold change” value read?
A: Its value is 0.00489.

Q: With RRIRHRPPRLPRPRPRPKVFPRP as the sequence, how does the “shrunken log2 fold change” value read?
A: Its value is -0.00193.

Q: RRIRFRPPRLPRPRPRPDSIPRP was tested. Which “shrunken log2 fold change” value did it give?
A: The value was -0.0087.

Q: Which “shrunken log2 fold change” value does the source give for RRIRWRPPRLPRPRPRPDFIPRP here?
A: Its value is -0.395.

Q: For RRIRGRPPRLPRPRPRPSGWPRP, which “shrunken log2 fold change” value is on record?
A: Its value is 1.52.

Q: How did the “shrunken log2 fold change” value turn out when RRIRKRPPRLPRPRPRPSLAPRP was run?
A: The value was 0.614.

Q: RRIRVRPPRLPRPRPRPPDYPRP was tested. Which “shrunken log2 fold change” value did it give?
A: The value was -0.114.

Q: RRIRVRPPRLPRPRPRPYSTPRP was tested. Which “shrunken log2 fold change” value did it give?
A: Its value is -0.00968.

Q: RRIRIRPPRLPRPRPRPQGAPRP was tested. Which “shrunken log2 fold change” value did it give?
A: Its value is 0.0368.

Q: For RRIRWRPPRLPRPRPRPRVAPRP, which “shrunken log2 fold change” value is on record?
A: Its value is 0.699.

Q: With RRIRTRPPRLPRPRPRPQLFPRP as the sequence, how does the “shrunken log2 fold change” value read?
A: The value was -0.112.

Q: How did the “shrunken log2 fold change” value turn out when RRIRYRPPRLPRPRPRPFWPPRP was run?
A: Its value is 0.0953.

Q: With RRIRCRPPRLPRPRPRPMKIPRP as the sequence, how does the “shrunken log2 fold change” value read?
A: Its value is 0.13.

Q: With RRIRWRPPRLPRPRPRPAGVPRP as the sequence, how does the “shrunken log2 fold change” value read?
A: The value was 0.66.

Q: Which “shrunken log2 fold change” value does the source give for RRIRLRPPRLPRPRPRPPHAPRP here?
A: Its value is 1.2.

Q: RRIRQRPPRLPRPRPRPKTMPRP was tested. Which “shrunken log2 fold change” value did it give?
A: Its value is -0.0635.

Q: RRIRCRPPRLPRPRPRPWMLPRP was tested. Which “shrunken log2 fold change” value did it give?
A: Its value is -0.419.

Q: RRIRIRPPRLPRPRPRPLIRPRP was tested. Which “shrunken log2 fold change” value did it give?
A: Its value is -0.508.

Q: With RRIRLRPPRLPRPRPRPNFLPRP as the sequence, how does the “shrunken log2 fold change” value read?
A: Its value is -0.153.

Q: RRIRPRPPRLPRPRPRPQRHPRP was tested. Which “shrunken log2 fold change” value did it give?
A: The value was -0.14.

Q: For RRIRMRPPRLPRPRPRPRNKPRP, which “shrunken log2 fold change” value is on record?
A: The value was 0.667.

Q: For RRIRMRPPRLPRPRPRPTAMPRP, which “shrunken log2 fold change” value is on record?
A: Its value is 1.14.

Q: How did the “shrunken log2 fold change” value turn out when RRIRDRPPRLPRPRPRPEWVPRP was run?
A: Its value is -0.0272.

Q: With RRIRERPPRLPRPRPRPVDSPRP as the sequence, how does the “shrunken log2 fold change” value read?
A: Its value is -0.0113.

Q: With RRIRKRPPRLPRPRPRPNAYPRP as the sequence, how does the “shrunken log2 fold change” value read?
A: The value was -0.082.

Q: Which “shrunken log2 fold change” value does the source give for RRIRHRPPRLPRPRPRPTPFPRP here?
A: Its value is 0.177.

Q: Which “shrunken log2 fold change” value does the source give for RRIRIRPPRLPRPRPRPIALPRP here?
A: Its value is -0.149.

Q: How did the “shrunken log2 fold change” value turn out when RRIRKRPPRLPRPRPRPMDRPRP was run?
A: Its value is 0.0586.

Q: With RRIRWRPPRLPRPRPRPNTFPRP as the sequence, how does the “shrunken log2 fold change” value read?
A: The value was 2.19.

Q: How did the “shrunken log2 fold change” value turn out when RRIRDRPPRLPRPRPRPTEVPRP was run?
A: The value was 0.121.

Q: How did the “shrunken log2 fold change” value turn out when RRIRFRPPRLPRPRPRPCHMPRP was run?
A: Its value is -0.285.

Q: How did the “shrunken log2 fold change” value turn out when RRIRQRPPRLPRPRPRPRPEPRP was run?
A: Its value is 0.646.

Q: RRIRSRPPRLPRPRPRPQHSPRP was tested. Which “shrunken log2 fold change” value did it give?
A: Its value is -0.658.

Q: How did the “shrunken log2 fold change” value turn out when RRIRCRPPRLPRPRPRPGHCPRP was run?
A: The value was -0.0435.

Q: With RRIRLRPPRLPRPRPRPWKAPRP as the sequence, how does the “shrunken log2 fold change” value read?
A: Its value is -0.0344.

Q: For RRIRCRPPRLPRPRPRPWWKPRP, which “shrunken log2 fold change” value is on record?
A: The value was -0.334.

Q: Which “shrunken log2 fold change” value does the source give for RRIRYRPPRLPRPRPRPLFTPRP here?
A: Its value is -0.962.

Q: RRIRERPPRLPRPRPRPITYPRP was tested. Which “shrunken log2 fold change” value did it give?
A: The value was -0.546.

Q: RRIRARPPRLPRPRPRPSITPRP was tested. Which “shrunken log2 fold change” value did it give?
A: Its value is 0.107.

Q: Which “shrunken log2 fold change” value does the source give for RRIRARPPRLPRPRPRPYPRPRP here?
A: The value was 0.00693.

Q: Which “shrunken log2 fold change” value does the source give for RRIRIRPPRLPRPRPRPKIVPRP here?
A: The value was -0.716.

Q: Which “shrunken log2 fold change” value does the source give for RRIRGRPPRLPRPRPRPYWTPRP here?
A: Its value is -0.0522.

Q: With RRIRCRPPRLPRPRPRPKMNPRP as the sequence, how does the “shrunken log2 fold change” value read?
A: The value was -0.415.

Q: Which “shrunken log2 fold change” value does the source give for RRIRFRPPRLPRPRPRPLFDPRP here?
A: Its value is -0.578.

Q: For RRIRGRPPRLPRPRPRPPNPPRP, which “shrunken log2 fold change” value is on record?
A: The value was 0.74.

Q: With RRIRPRPPRLPRPRPRPLNDPRP as the sequence, how does the “shrunken log2 fold change” value read?
A: Its value is -0.298.

Q: With RRIRIRPPRLPRPRPRPATGPRP as the sequence, how does the “shrunken log2 fold change” value read?
A: The value was -0.119.

Q: How did the “shrunken log2 fold change” value turn out when RRIRSRPPRLPRPRPRPVRYPRP was run?
A: Its value is 0.0544.

Q: Which “shrunken log2 fold change” value does the source give for RRIRIRPPRLPRPRPRPYKVPRP here?
A: Its value is -0.385.

Q: With RRIRERPPRLPRPRPRPGKFPRP as the sequence, how does the “shrunken log2 fold change” value read?
A: The value was -0.0178.

Q: RRIRKRPPRLPRPRPRPKYEPRP was tested. Which “shrunken log2 fold change” value did it give?
A: The value was 0.057.

Q: For RRIRFRPPRLPRPRPRPGRLPRP, which “shrunken log2 fold change” value is on record?
A: Its value is 0.262.

Q: With RRIRVRPPRLPRPRPRPCEQPRP as the sequence, how does the “shrunken log2 fold change” value read?
A: Its value is 0.211.

Q: With RRIRWRPPRLPRPRPRPQANPRP as the sequence, how does the “shrunken log2 fold change” value read?
A: The value was 0.395.

Q: RRIRKRPPRLPRPRPRPLKGPRP was tested. Which “shrunken log2 fold change” value did it give?
A: The value was -0.022.

Q: With RRIRSRPPRLPRPRPRPLEEPRP as the sequence, how does the “shrunken log2 fold change” value read?
A: Its value is 0.411.

Q: RRIRDRPPRLPRPRPRPQVDPRP was tested. Which “shrunken log2 fold change” value did it give?
A: The value was -0.0156.

Q: RRIRCRPPRLPRPRPRPFHHPRP was tested. Which “shrunken log2 fold change” value did it give?
A: The value was -0.00672.

Q: For RRIRARPPRLPRPRPRPLQHPRP, which “shrunken log2 fold change” value is on record?
A: Its value is 1.22.

Q: With RRIRRRPPRLPRPRPRPRLGPRP as the sequence, how does the “shrunken log2 fold change” value read?
A: Its value is 0.76.

Q: RRIRFRPPRLPRPRPRPWITPRP was tested. Which “shrunken log2 fold change” value did it give?
A: Its value is -0.192.

Q: Which “shrunken log2 fold change” value does the source give for RRIRQRPPRLPRPRPRPWCKPRP here?
A: The value was -0.0323.

Q: Which “shrunken log2 fold change” value does the source give for RRIRYRPPRLPRPRPRPKTCPRP here?
A: Its value is -0.0102.

Q: With RRIRWRPPRLPRPRPRPDDNPRP as the sequence, how does the “shrunken log2 fold change” value read?
A: The value was 0.174.

Q: How did the “shrunken log2 fold change” value turn out when RRIRIRPPRLPRPRPRPARVPRP was run?
A: The value was -0.0658.

Q: With RRIRARPPRLPRPRPRPPFVPRP as the sequence, how does the “shrunken log2 fold change” value read?
A: The value was 1.42.

Q: How did the “shrunken log2 fold change” value turn out when RRIRFRPPRLPRPRPRPQPFPRP was run?
A: Its value is -0.0783.

Q: How did the “shrunken log2 fold change” value turn out when RRIRKRPPRLPRPRPRPYTHPRP was run?
A: Its value is -0.376.

Q: RRIRIRPPRLPRPRPRPLIQPRP was tested. Which “shrunken log2 fold change” value did it give?
A: The value was -1.02.

Q: With RRIRLRPPRLPRPRPRPPLTPRP as the sequence, how does the “shrunken log2 fold change” value read?
A: The value was 0.288.
